In patent US11932673:
Substitutions are numbered along the chain they refer to.

B1: KB_A01 (scFv, V domains shown)
VH: EVQLVESGGGLVRPGGSLRLSCAASGFTFSSYAMSWVRQAPGKGLEWVSAISGSGGSTYYADSVKGRFTISRDNTKNSLYLQMTSLRADDTAFYYCVKDFGPGYGTGWFDYWGPGTLVTVSS
VL: YLNWYQQKPGKAPKLLIYAAEVCPRILMRCKQDSDCLAGCVCGPNGFCGGTSGVPSRFSGSRSGTEFTLTISSLQPEDFATYYCQKVDDYPLTFGGGTKVEIKR
B2: KB_A02 (scFv, V domains shown)
VH: B1 VH
VL: AVNWYQQLPGKAPKLLIYAAAKCPRILMRCKQDSDCLAGCVCGPNGFCGGASGVSDRFSGSIDSSSNSASLTISGLKPEDEGDYYCQSYDSSNRWVFGGGTKVTVLG
B3: KB_B02 (scFv, V domains shown)
VH: B1 VH
VL: AVNWYQQLPGKAPKLLIYAAVGCPRILMRCKQDSDCLAGCVCGPNGFCGTGSGIPERFSGSKSGNTASLTISGLQAEDEGDYYCAAWDDSLSGPVFGGGTKLTVLG
B4: KB_C08 (scFv, V domains shown)
VH: B1 VH
VL: AVNWYQQLPGKAPKLLIYAAAVCPRILMRCKQDSDCLAGCVCGPNGFCGTRSGIPERFSGSKSGTSAFLAISGLRSEDEADYYCAAWDDSLSGVVFGGGTKLTVLG
B5: KB_A05 (scFv, V domains shown)
VH: B1 VH
VL: B4 VL with A21D, V22K, T50G, R51G, F68S, A86T, S90N, S92N
B6: KB_A10 (scFv, V domains shown)
VH: B1 VH
VL: B3 VL with V21G, T50S, G51N, I54V, E56D, A76S, G80A, P94V, K101Q
B7: KB_A11 (scFv, V domains shown)
VH: B1 VH
VL: YLNWYQQKPGKAPKLLIYAAEICPRILMRCKQDSDCLAGCVCGPNGFCGPSSGIPARFSGSGYGTDFTLTINNIESEDAAYYFCLQHDNFPYTFGQGTKVEIKR
B8: KB_C10 (scFv, V domains shown)
VH: B1 VH
VL: AVNWYQQLPGKAPKLLIYAAGPCPRILMRCKQDSDCLAGCVCGPNGFCGADSGVSDRFSGSKSGTSASLAITGLQAEDEGDYYCAAWDDSLNGLVFGGGTKVTVLG
B9: KB_C07 (scFv, V domains shown)
VH: B1 VH
VL: AVNWYQQLPGKAPKLLIYAAVGCPRILMRCKQDSDCLAGCVCGPNGFCGSASGVSDRFSGSKSGTSASLAISGLRSEDEADYYCASWDDSLRGYVFGTGTKVTVLG
B10: KB_A09 (scFv, V domains shown)
VH: B1 VH
VL: AVNWYQQLPGKAPKLLIYAAERCPRILMRCKQDSDCLAGCVCGPNGFCGTPSGVPDRFSGSIDTFSNSASLTISGLKTEDEADYYCQSYDSSHHWVFGGGTKLTVLG
B11: KB_C09 (scFv, V domains shown)
VH: B1 VH
VL: B10 VL with E21G, T50G, P51G, T64S, F65S, K77R, T78A, H93N
B12: KB_A06 (scFv, V domains shown)
VH: B1 VH
VL: AVNWYQQLPGKAPKLLIYAAVRCPRILMRCKQDSDCLAGCVCGPNGFCGTPSGIPERFSGSIDRSTNSASLTISGLKTEDEADYYCQSYDSSNLNWVFGGGTKLTVLG
B13: KB_B01 (scFv, V domains shown)
VH: B1 VH
VL: B9 VL with V21A, S50T, A51R, S86A, G93A, V102L
B14: E01 (KnotBody with EET 5-3 framing) (scFv, V domains shown)
VH: B1 VH
VL: AVNWYQQLPGKAPKLLIYAAGGCGPNGFCGSGSDGGVCPRILMRCKQDSDCLAGCGIHSGVSDRFSDSKSGTSASLAISGLQSEDEADYYCAAWDDSLNGYVFGTGTKLTVLG
B15: C09 (KnotBody with EET 5-3 framing) (scFv, V domains shown)
VH: B1 VH
VL: SEAPRQRVTITCGGKRCGPNGFCGSGSDGGVCPRILMRCKQDSDCLAGCTSNWYQQKPGQAPVLVVQDDSVRPSGIPERFSGSNSGNTATLTISRVEAGDGADYYCQVWDISSDLGVFGGGTKLTVLG
B16: KB_A12_B-gal_F07 (scFv, V domains shown)
VH: B1 VH
VL: AVNWYQQLPGKAPKLLIYAAGRCRTTANVRRHCKQDSDCLAGCVCGPNGFCGANSGVSDRFSAAKSGTSASLAINGLRSEDEADYYCAAWDDSLNGYVFGTGTKLTVLG
B17: KB_A12_B-gal_H02 (scFv, V domains shown)
VH: B1 VH
VL: B16 VL with R24E, T25Q, A27S, N28V, V29I
B18: KB_A12_B-gal_H03 (scFv, V domains shown)
VH: B1 VH
VL: B16 VL with R24N, T25Q, A27M, N28S, V29I, H32P
B19: KB_A12_B-gal_E04 (scFv, V domains shown)
VH: B1 VH
VL: B16 VL with R24L, T25A, A27T, N28S, V29I, H32P
B20: KB_A12_B-gal_F02 (scFv, V domains shown)
VH: B1 VH
VL: B16 VL with A27S, N28T, V29I, H32R
B21: KB_A12_B-gal_F03 (scFv, V domains shown)
VH: B1 VH
VL: B16 VL with R24L, T25A, A27T, N28S, V29I
B22: KB_A12_B-gal_F11 (scFv, V domains shown)
VH: B1 VH
VL: B16 VL with R24H, T25E, N28Q, V29I, H32R
B23: KB_A12_B-gal_H07 (scFv, V domains shown)
VH: B1 VH
VL: B16 VL with R24T, T25Q, N28L, V29I, H32R
B24: KB_A12_B-gal_F09 (scFv, V domains shown)
VH: B1 VH
VL: B16 VL with R24I, T25A, A27S, N28H, V29I
B25: KB_A12_B-gal_E05 (scFv, V domains shown)
VH: B1 VH
VL: B16 VL with T25E, A27S, N28S, V29L, H32P
B26: KB_A12_B-gal_G05 (scFv, V domains shown)
VH: B1 VH
VL: B16 VL with R24L, T25D, A27V, V29L, H32R
B27: KB_B12 (scFv, V domains shown)
VH: B1 VH
VL: TQPPSVSEAPRQRVTITCGERPCPRILMRCKQDSDCLAGCVCGPNGFCGANNWYQQLPGSSPTTVIYEDNQRPSGVPDRFSGSIDSSSNSASLTISGLKTEDEADYYCQSYDSSNQVFGGGTKVTVLG
B28: KB_B11 (scFv, V domains shown)
VH: B1 VH
VL: TQPPSVSEAPRQRVTITCGSRPCPRILMRCKQDSDCLAGCVCGPNGFCGSHNWYQQLPGSSPTTVIYEDNQRPSGVPDRFSGSIDRSSNSASLTISGLKTEDEADYYCQSYDSSNHRVVFGGGTKLTVLG
B29: KB_A03 (scFv, V domains shown)
VH: B1 VH
VL: AVNWYQQLPGKAPKLLINAADRCPRILMRCKQDSDCLAGCVCGPNGFCGTNSGVPDRFSGSSSGNTASLTITGAQAEDEADYYCNSRDSSGNNWVFGGGTKVTVLG
B30: KB_B10 (scFv, V domains shown)
VH: B1 VH
VL: QSVLTQLPSVSEAPRQRVTITCGRAMCPRILMRCKQDSDCLAGCVCGPNGFCGTGNWYQQHPGKAPKLIIFDVSKRPSGVPDRFSASKSGNTASLTISGLQAEDEADYYCNSYTSSNTWVFGGGTQLTVLG

Molecular target: trypsin
Test: Fab TRF, 10 ug/mL Fab

TRF signal | Binder
55600 | B1
255000 | B2
56600 | B3
183000 | B4
218000 | B5
68700 | B6
212000 | B7
238000 | B8
276000 | B9
161000 | B10
289000 | B11
242000 | B12
257000 | B13

Molecular target: trypsin
Test: Fab TRF, 2.4 ug/mL Fab

TRF signal | Binder
16600 | B1
221000 | B2
15900 | B3
131000 | B4
65400 | B5
71900 | B6
141000 | B7
146000 | B8
247000 | B9
84100 | B10
205000 | B11
212000 | B12
153000 | B13

Molecular target: trypsin
Test: monoclonal phage ELISA

ELISA signal | Binder
128000 | B14
9820 | B15

Molecular target: β-galactosidase
Test: monoclonal phage TRF

β-galactosidase, sequence (P00722 2-1024): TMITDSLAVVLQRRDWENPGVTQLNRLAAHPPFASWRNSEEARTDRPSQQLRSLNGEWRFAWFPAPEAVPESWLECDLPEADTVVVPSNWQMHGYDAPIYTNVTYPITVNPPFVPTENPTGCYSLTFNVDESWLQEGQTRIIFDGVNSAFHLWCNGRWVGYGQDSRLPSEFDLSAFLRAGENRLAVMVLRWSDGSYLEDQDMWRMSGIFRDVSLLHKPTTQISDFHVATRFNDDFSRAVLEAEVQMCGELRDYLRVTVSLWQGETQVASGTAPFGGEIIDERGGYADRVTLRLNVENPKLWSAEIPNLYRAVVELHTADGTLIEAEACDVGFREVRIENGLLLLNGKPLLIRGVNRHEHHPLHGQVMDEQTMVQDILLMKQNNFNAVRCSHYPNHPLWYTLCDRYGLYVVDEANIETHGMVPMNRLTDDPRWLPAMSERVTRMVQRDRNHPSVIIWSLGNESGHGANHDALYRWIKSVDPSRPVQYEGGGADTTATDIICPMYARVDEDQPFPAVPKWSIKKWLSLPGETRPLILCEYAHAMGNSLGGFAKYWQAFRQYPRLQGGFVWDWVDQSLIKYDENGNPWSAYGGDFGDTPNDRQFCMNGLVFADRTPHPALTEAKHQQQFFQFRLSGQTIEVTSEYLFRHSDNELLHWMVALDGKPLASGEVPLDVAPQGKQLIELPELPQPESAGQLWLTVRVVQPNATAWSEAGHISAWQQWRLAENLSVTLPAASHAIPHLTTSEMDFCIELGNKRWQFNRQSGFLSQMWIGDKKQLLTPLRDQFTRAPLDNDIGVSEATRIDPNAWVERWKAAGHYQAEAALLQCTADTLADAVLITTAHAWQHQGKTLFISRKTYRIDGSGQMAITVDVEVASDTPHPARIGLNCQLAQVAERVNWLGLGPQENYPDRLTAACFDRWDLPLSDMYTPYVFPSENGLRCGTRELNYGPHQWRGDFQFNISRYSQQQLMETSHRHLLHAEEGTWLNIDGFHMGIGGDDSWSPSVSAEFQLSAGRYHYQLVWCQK

TRF signal | Binder
246000 | B16
501000 | B17
518000 | B18
523000 | B19
476000 | B20
289000 | B21
531000 | B22
62000 | B23
258000 | B24
312000 | B25
529000 | B26

Molecular target: trypsin
Test: monoclonal phage TRF

Tryspin binding signal (FU) | Binder
20200 | B1
17400 | B27
183000 | B2
116000 | B3
76800 | B4
121000 | B5
38800 | B6
16400 | B7
119000 | B8
43300 | B9
10300 | B28
57700 | B10
28700 | B29
89400 | B11
24400 | B12
57700 | B13
9270 | B30

Molecular target: trypsin
Test: Fab TRF, 0.6 ug/mL Fab

TRF signal | Binder
2390 | B1
93800 | B2
2340 | B3
51100 | B4
46700 | B5
14600 | B6
48900 | B7
41700 | B8
153000 | B9
21000 | B10
46800 | B11
108000 | B12
54800 | B13
